Measurements reported in patent publication US20240093191A1, “COMPOSITIONS AND METHODS FOR TREATING DISEASE ASSOCIATED WITH DUX4 OVEREXPRESSION” (RESEARCH INSTITUTE AT NATIONWIDE CHILDREN'S HOSPITAL, priority 2021, published 2024).
Numbering of substitutions follows the chain as printed.

B1: U6.mi405A: mi405 construct with altered flanking sequences (nucleic acid)
DNA: ACGCCGCCATCTCTAGGCCCGCGCCGGCCCCCTCGCACAGACTTGTGGGAGAAGCTCGGCTACTCCCCTGCCCCGGTTAATTTGCATATAATATTTCCTAGTAACTATAGAGGCTTAATGTGCGATAAAAGACAGATAATCTGTTCTTTTTAATACTAGCTACATTTTACATGATAGGCTTGGATTTCTATAAGAGATACAAATACTAAATTATTATTTTAAAAAACAGCACAAAAGGAAACTCACCCTAACTGTAAAGTAATTGTGTGTTTTGAGACTATAAATATCCCTTGGAGAAAAGCCTTGTTTGACCGTTTAAACTCGAGTGAGCGATCCAGGATTCAGATCTGGTTTCTGTAAAGCCACAGATGGGAAACCAGATCTGAATCCTGGACTGCCTACTAGAGCGGCCGCCACTTTTTT
B2: U6.mi405D: mi405 construct with altered flanking sequences (nucleic acid)
DNA: ACGCCGCCATCTCTAGGCCCGCGCCGGCCCCCTCGCACAGACTTGTGGGAGAAGCTCGGCTACTCCCCTGCCCCGGTTAATTTGCATATAATATTTCCTAGTAACTATAGAGGCTTAATGTGCGATAAAAGACAGATAATCTGTTCTTTTTAATACTAGCTACATTTTACATGATAGGCTTGGATTTCTATAAGAGATACAAATACTAAATTATTATTTTAAAAAACAGCACAAAAGGAAACTCACCCTAACTGTAAAGTAATTGTGTGTTTTGAGACTATAAATATCCCTTGGAGAAAAGCCTTGTTTGACTCGAGTGAGCGATCCAGGATTCAGATCTGGTTTCTGTAAAGCCACAGATGGGAAACCAGATCTGAATCCTGGACTGCCTACTAGAGCGGCCGCCACTTTTTT
B3: U6.mi405E: mi405 construct with altered flanking sequences (nucleic acid)
DNA: B2 DNA with G401C, C402A, C408G
B4: U6.mi405B: mi405 construct with altered flanking sequences (nucleic acid)
DNA: ACGCCGCCATCTCTAGGCCCGCGCCGGCCCCCTCGCACAGACTTGTGGGAGAAGCTCGGCTACTCCCCTGCCCCGGTTAATTTGCATATAATATTTCCTAGTAACTATAGAGGCTTAATGTGCGATAAAAGACAGATAATCTGTTCTTTTTAATACTAGCTACATTTTACATGATAGGCTTGGATTTCTATAAGAGATACAAATACTAAATTATTATTTTAAAAAACAGCACAAAAGGAAACTCACCCTAACTGTAAAGTAATTGTGTGTTTTGAGACTATAAATATCCCTTGGAGAAAAGCCTTGTTTGACCGTTTAAACTCGAGTGAGCGATCCAGGATTCAGATCTGGTTTCTGTAAAGCCACAGATGGGAAACCAGATCTGAATCCTGGACTGCCTACTAGATTTTTT
B5: U6.mi405C: mi405 construct with altered flanking sequences (nucleic acid)
DNA: ACGCCGCCATCTCTAGGCCCGCGCCGGCCCCCTCGCACAGACTTGTGGGAGAAGCTCGGCTACTCCCCTGCCCCGGTTAATTTGCATATAATATTTCCTAGTAACTATAGAGGCTTAATGTGCGATAAAAGACAGATAATCTGTTCTTTTTAATACTAGCTACATTTTACATGATAGGCTTGGATTTCTATAAGAGATACAAATACTAAATTATTATTTTAAAAAACAGCACAAAAGGAAACTCACCCTAACTGTAAAGTAATTGTGTGTTTTGAGACTATAAATATCCCTTGGAGAAAAGCCTTGTTTGCTCGAGTGAGCGATCCAGGATTCAGATCTGGTTTCTGTAAAGCCACAGATGGGAAACCAGATCTGAATCCTGGACTGCCTACTAGAGCGGCCGCCACTTTTTT

Tested on: mi405 mature sequence
Test: QPCR of mature mi405 (standard TaqMan cDNA synthesis) in HEK293 cells
Format: cell-based, human
Conditions: 24 h after transfection
Description: TaqMan Gene Expression Assay. QRT-PCR was carried out to quantify the expression of pri-mir-675, mir-675-5p and mi405 using TaqMan probes (ThermoFisher Scientific). Experiments were started by eliminating genomic DNA from the RNA preparations, and then cDNA was generated using the High-Capacity cDNA Reverse Transcription Kit (Applied Biosystems) following manufacturer's instructions. Within the same cDNA reaction, 1×RT random hexamer primers were used to generate the cDNA for RPL13A, used as a reference gene, and for pri-mir-675. To generate the cDNA for mir-675, the RT mir-675 reverse primer provided by ThermoFisher Scientific was used. For mi405, the mi405 qPCR protocol was done as it was previously described [Wallace et al., Mol. Ther. Methods Clin. Dev. 8: 121-30 (2018)]. To quantify mir-675 and mi405 levels, RNA was extracted using the total RNA protocol for the mirVana miRNA Isolation Kit (Ambion) from HEK293 cells. cDNA was generated using the High-Capacity cDNA Reverse Transcription Kit (Applied Biosystems) using a mix of random hexamer primers and specific reverse primer for pri-mir-675 and mir-675-5p. For mi405, 200 nM of the stem-loop forming primer (5′-[…]-3′) (SEQ ID NO: 144) was also used for the RT step. A custom TaqMan assay (Applied Biosystems) including 1.5 μM of Forward primer (5′-[…]-3′) (SEQ ID NO: 145), 0.7 μM of Reverse primer (5′-GTGCAGGGTCCGAGGT-3′) (SEQ ID NO: 146), and 0.2 μM of mi405 probe (5′-6FAM-ATACGACGTCCAGGAT-3′) (SEQ ID NO: 147) was then run using the CFX Connect Real Time system apparatus (Bio-Rad). RPL13A (Mm02526700_g1; Applied Biosystems) served as the reference gene. The TaqMan gene expression assay consisted of using the TaqMan Gene Expression Master mix and TaqMan probes purchased from ThermoFisher Scientific. 1× of probe was mixed with 1× of the TaqMan Gene Expression Master mix (ThermoFisher Scientific), and with 20 ng of cDNA. The mir-675- and mi405-specific primers and probes were designed to quantify only the mir-675-5p and mi405 mature sequence (see TaqMan Gene Expression Master mix protocol).
Apart from the effect on the inhibition efficiency of mi405, the effect of the flanking sequences on the expression of the miRNA also was tested. Therefore, the expression of the processed mature mi405 sequences was quantified using the standard and advanced TaqMan cDNA synthesis reaction. In the former reaction, a reverse primer detects the mature mi405 sequence following a stem-loop primer-based small RNA detection principle (ThermoFisher Scientific) (Jung et al., RNA (2013) 19: 1-10). The amplification and quantification steps were then performed using a standard TaqMan probe specific to mi405 that base pairs at the junction between the mi405 mature sequence and the reverse primer sequence (FIG. 6A). […] In the TaqMan advanced cDNA synthesis reaction, the mature sequence is extended through ligation of an adaptor sequence at the 5′ end and through the enzymatic addition of a polyA tail at the 3′ end of the mature mi405 sequence. The amplification and quantification steps were then performed using a TaqMan advanced probe specific to mi405 that normally base pairs with the 3′ end of the mature miRNA and with part of the adaptor sequence. Here, an additional TaqMan advanced probe (embedded probe) that only base pairs with the mature sequence of mi405 (FIG. 6B) was used. As a result, following TaqMan advanced cDNA synthesis reaction, droplet digital PCR (ddPCR) was performed to quantify mi405, mi405F, mi405B, mi405C, mi405G and mi405H expression levels. For this, TaqMan advanced embedded and overlapped mi405 probes (FIG. 6B) were used.

Row | Molecule | levels of mature mi405 sequence compared to U6.mi405
1 | B1 | greater or higher with the difference not being statistically significant
2 | B2 | greater or higher with the difference not being statistically significant
3 | B3 | greater or higher with the difference not being statistically significant

Same assay, conditions: 24 h after transfection, normalized to RPL13A

Row | Molecule | reduction of mature mi405 sequence expression relative to U6.mi405
4 | B4 | 71±9%
5 | B5 | 63±27%

Tested on: DUX4 ORF (RenLuc-DUX4 ORF)
Test: Dual-luciferase assay, RenLuc-DUX4 ORF reporter co-transfected with miDUX4 plasmids in HEK293 cells
Format: cell-based, human
Conditions: DUX4:mi405 molar ratio 2 to 1; HEK293; 24 h; normalized to U6.miGFP
Description: Dual Luciferase Assay. (See also FIGS. 1A, 3A-B, 4A-B, 5B, and 16B-C.) This assay was performed as previously described by Wallace et al. (Mol. Ther. Methods Clin. Dev. 8: 121-30 (2018)) and following the dual-luciferase reporter assay system (Promega) protocol with some modifications. All plasmid constructs had the psiCheck2 dual luciferase reporter plasmid (Promega) as backbone that contains separate Renilla and Firefly luciferase genes, where the former contains the various target sequences used in the experiments of the disclosure, and the latter serves as a transfection normalizer (control). All DUX4 and control sequences were cloned downstream of the Renilla luciferase stop codon, serving as a 3′UTR. HEK293 cells were pre-plated 24h before transfection. Cells were then co-transfected with the luciferase DUX4 reporter and individual microRNA expression plasmids in an increasing luciferase DUX4 reporter:miRNA molar ratio using Lipofectamine 2000 (Invitrogen). Luciferase activity was measured 24h or 48h after transfection. DUX4 gene silencing was determined as previously described [Wallace et al., Mol. Ther. Methods Clin. Dev. 8: 121-30 (2018)]. Triplicate data were averaged per experiment, and individual experiments were performed 3 times. Results were reported as the average ratio of Renilla to Firefly luciferase activity±SEM for all combined experiments.
Accordingly, two new mi405 constructs, i.e., mi405F and mi405NF, were designed. […] To assess the inhibition efficiency of the three mi405 constructs, a dual-luciferase assay and western blot analysis, similar to what was described for mir-675, were carried out. In the dual-luciferase assay, U6.mi405, U6.mi405F, or U6.mi405NF was co-transfected into HEK293 cells along with the RenLuc-DUX4 ORF (a construct expressing the open reading frame of DUX4 as a 3′UTR sequence of Renilla Luciferase). 24 h after transfection, U6.mi405, U6.mi405F, and U6.mi405NF reduced the relative Renilla luciferase activity by 85±1%, 89±1%, and 66±1% (P<0.0001, ANOVA, N=3), respectively, when tested against the RenLuc-DUX4 ORF construct.

Row | Molecule | reduction of Renilla luciferase activity
6 | B1 | 72±1%
7 | B4 | 25±3%
8 | B5 | 64±1%
9 | B2 | 71±1%
10 | B3 | 73±1%
